According to patent publication US20120244171A1 (IMMUNOGEN, published 2012):

Biological target: human folate receptor 1 (human, UniProt P15328 25-234)
Assay: cell-based or functional assay

Chain of human folate receptor 1 (P15328 25-234): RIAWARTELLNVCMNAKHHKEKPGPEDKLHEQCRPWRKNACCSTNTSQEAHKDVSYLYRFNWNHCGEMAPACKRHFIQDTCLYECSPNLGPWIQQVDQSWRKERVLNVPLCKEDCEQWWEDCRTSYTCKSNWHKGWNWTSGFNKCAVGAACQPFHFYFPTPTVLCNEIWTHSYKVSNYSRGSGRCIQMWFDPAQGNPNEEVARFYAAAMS

B1: huFOLR1-SPDB-1f conjugate (antibody, human IgG1, kappa, V domains shown)
VH: QVQLVQSGAEVVKPGASVKISCKASGYTFTGYFMNWVKQSPGQSLEWIGRIHPYDGDTFYNQKFQGKATLTVDKSSNTAHMELLSLTSEDFAVYYCTRYDGSRAMDYWGQGTTVTVSS
VL: DIVLTQSPLSLAVSLGQPAIISCKASQSVSFAGTSLMHWYHQKPGQQPRLLIYRASNLEAGVPDRFSGSGSKTDFTLTISPVEAEDAATYYCQQSREYPYTFGGGTKLEIKR
modifications: compound 1f linked through the SPDB linker; positions not given
- fold loss of cytotoxic potency when blocked with unconjugated antibody: 40 fold
- fold reduction of cytotoxic effect on KB cells by an excess of unconjugated huFOLR1 antibody: > 40 fold
- in vitro cytotoxicity IC50 on antigen positive KB cells: 0.055 nM
